# Measured values reported in IntAct's records for PubMed 12023880.
# B1: Tyrosine-protein phosphatase non-receptor type 1 (Homo sapiens), P18031 (parent)
# chain: MEMEKEFEQIDKSGSWAAIYQDIRHEASDFPCRVAKLPKNKNRNRYRDVSPFDHSRIKLHQEDNDYINASLIKMEEAQRSYILTQGPLPNTCGHFWEMVWEQKSRGVVMLNRVMEKGSLKCAQYWPQKEEKEMIFEDTNLKLTLISEDIKSYYTVRQLELENLTTQETREILHFHYTTWPDFGVPESPASFLNFLFKVRESGSLSPEHGPVVVHCSAGIGRSGTFCLADTCLLLMDKRKDPSSVDIKKVLLEMRKFRMGLIQTADQLRFSYLAVIEGAKFIMGDSSVQDQWKELSHEDLEPPPEHIPPPPRPPKRILEPHNGKCREFFPNHQWVKEETQEDKDCPIKEEKGSPLNAAPYGIESMSQDTEVRSRVVGGSLRGAQAASPAKGEPSLPEKDEDHALSYWKPFLVNMCVATVLTAGAYLCYRFLFNSNT
# B2: Tyrosine-protein phosphatase non-receptor type 1 (Homo sapiens), P18031 (parent)
# chain: B1 chain
# partner: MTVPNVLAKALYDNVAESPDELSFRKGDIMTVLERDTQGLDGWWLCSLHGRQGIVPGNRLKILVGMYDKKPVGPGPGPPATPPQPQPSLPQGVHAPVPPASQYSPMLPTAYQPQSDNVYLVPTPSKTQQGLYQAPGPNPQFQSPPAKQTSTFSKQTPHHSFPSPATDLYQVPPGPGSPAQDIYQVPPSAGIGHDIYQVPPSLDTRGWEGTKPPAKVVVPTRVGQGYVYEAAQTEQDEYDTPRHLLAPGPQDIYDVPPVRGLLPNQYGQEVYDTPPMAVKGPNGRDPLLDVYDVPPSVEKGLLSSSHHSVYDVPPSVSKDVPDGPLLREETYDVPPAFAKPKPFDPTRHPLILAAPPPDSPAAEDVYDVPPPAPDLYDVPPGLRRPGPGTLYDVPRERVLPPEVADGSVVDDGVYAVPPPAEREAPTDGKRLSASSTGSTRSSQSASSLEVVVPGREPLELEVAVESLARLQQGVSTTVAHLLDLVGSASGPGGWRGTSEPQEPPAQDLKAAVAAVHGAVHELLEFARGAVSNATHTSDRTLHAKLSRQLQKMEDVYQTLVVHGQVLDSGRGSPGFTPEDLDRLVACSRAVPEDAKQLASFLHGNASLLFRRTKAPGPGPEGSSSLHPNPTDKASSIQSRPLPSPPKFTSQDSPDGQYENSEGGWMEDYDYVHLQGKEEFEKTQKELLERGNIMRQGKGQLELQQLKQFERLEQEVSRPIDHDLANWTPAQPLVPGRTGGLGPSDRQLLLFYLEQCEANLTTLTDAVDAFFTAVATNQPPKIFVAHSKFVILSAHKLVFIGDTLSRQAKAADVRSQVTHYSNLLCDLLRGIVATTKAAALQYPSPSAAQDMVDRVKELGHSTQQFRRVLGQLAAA
# Variants of: B1
# Settings: with insr_rat Insr
row,effect of a mutation on the interaction,Variant
1,disrupting interaction,Y152F;Y153F

# Variants of: B1
# Settings: with src_rat Src
row,effect of a mutation on the interaction,Variant
1,disrupting interaction,P309A;P310A

# Variants of: B1
# Settings: with grb2_rat Grb2, P62994
row,effect of a mutation on the interaction,Variant
1,disrupting interaction,P309A;P310A

# Variants of: B1
# Settings: with crk_rat Crk
row,effect of a mutation on the interaction,Variant
1,disrupting interaction,P309A;P310A

# Variants of: B2
# Settings: with bcar1_mouse Bcar1, Q61140
row,effect of a mutation on the interaction,Variant
1,disrupting interaction,P309A;P310A
